{"source": "the DeepSol protein solubility set", "data": [{"test": "soluble on expression in E. coli; label from the status in PepcDB or PDB records", "values": [{"sequence": "MNIEQQLYDVVKQLIEQRYPNDWGGAAAIRVEDGTIYTSVAPDVINASTELCMETGAILEAHKFQKKVTHSICLARENEHSELKVLSPCGVCQERLFYWGPEVQCAITNAKQDIIFKPLKELQPYHWTEAYHDEMVKEWSTR", "soluble on expression in E. coli": "soluble"}, {"sequence": "METLLLVQLFHELALKGKNRPFFLKRAKAHVRRALKGLGVALEGEWPMALLFRLPEEAWPEAKARLQDTLGVERFARVHRTPPDLEALKAALEKALEGQAFGSFRITAKRSDKAFPLTSPEIERALGAFVKGKTGAPVRLKGAEREFVVRVLPGAALLEVERHPGPGGLPPGVSGRVVALLSGGIDSPVAAYRLMRRGAEVVLVHFHPFPLLSGASREKAKALAERLARFQHRLRLHLVPFSEVQRHIIVEAPTAYRVVLYRRYMLRIAEAIAREEGALALCTGDSLGQVASQTLENLHAVNQAATLPVFRPLIGWDKEEIVAEAQRIGTYATSILPDEECCTLFAPKHPVTRARLEVVLETEARLPTEELLALALKEREVLTYTWPGKPLPEEPEGAFIMEHGPA", "soluble on expression in E. coli": "soluble"}, {"sequence": "MICNCFLLIIVTLVISNCDGICLNHEGWGNVGSVFTDPLCNVWCEIKLCGPGQCIEDPMTTAPARCVCEKCYRDNSGNAVYPGGNNDYQQQAQMNRERQLDRQYNRQLRQQNRMNKAWQRGWQ", "soluble on expression in E. coli": "not soluble"}, {"sequence": "MLRIEDLQLAAALAQAPSLSAAARALNVTPPALSMRLRKLEAGLGLALAVRSARRLSLTPEGERLAREAAALLAQLQALPESLRRDDSRLTGTLRVAAPFGYGRRHIAPVLARLAQRHPELRVQLDLRETPWPDHQDADAVVHIGAVRDSSWVTRRLADNERWLCASPQYLQDHGMPREPRDLLHHRCICIRENDEDASLWRFRRADAGAAGRKAAETVRIAPAYVSNDGNVARAWAEQGLGLVVRSQWDAEGAVARGALVRVMPQWQLDSAPVMLLVPGRKGRSARVKALLECFDEQAGHA", "soluble on expression in E. coli": "not soluble"}, {"sequence": "MSLKDGTFQIAIFSDMHFGQYESTTGPEQDRNSVEVLNKVLDYDTPDLVVLNGDLINGDSTWKHNSTHYIDMIVEPMVNRSLTWASTYGNHDHNYNINGDDILVREQMWPGARTQKMVNKTRSGTTNYYLPVYPSDCSNTSDCSPQMILWFFDSRGGNYYQGSWQENWVDQSVVDWFNETSTELTSKHNKTIPSLAFVHVPPNATVALQTELGIRKNNQPGINDDPPVPQQGYGWCADGTPTYDCPYGGQDIPFMEALVTIPGIIGLFYGHDHGNTWCYRWDTKLDGMDIEGNGIHLCYGQHSGYGGYGDWIRGAREIVVTEDMLEKNEVETYIRLESGDVVGKVMLNSTYNEGHHHHHH", "soluble on expression in E. coli": "not soluble"}, {"sequence": "MAHHHHHHMTAHHALLLGSLVDDVDLSVRRGAQADTLTVDGAADRLLSAIASYTKSAAATDVDVEDNGEAAQETAALSLMAHMQRLSLLCNAARTPETSCTSAGEDNIHKCVDDWAKWLLGLESKPIVLASKVALCLPPLQACWRGGSALDGAGSAHIDRIEEAIGSFFAHAARRCVTEWTTHGAPLRTLLPPLALLTTYARFRWAWSRFTELRHVGGGEHLGEAEGGIAVVGSSDTVQRQENRDIDFLGIAGEVESCHAAKLTREVLLHSLKTIDWRVGSAVPAVKEVAPLFWCVFLRCRSYALHSCSQCRSSSSDFFAHEASARLVAQVLRCTVDGVRLCIERQAADMHVARARQLCTCDIPCLVLLTRLWFSWIALATDAAAVLLPRLERSLRQLVSSVVKLRGGAETKPPPSSVAAALAENSAEASWTEQETLFVEVAWKVAPLSMSEIASATAAVPWTSEFVRASEVQAVLEKRTLVAPVP", "soluble on expression in E. coli": "not soluble"}, {"sequence": "MGSDKIHHHHHHMSWNSFGNFMSARSSALAEFGNMVANLVSAKNEKDISKRNEYYKQAGYSALLAFGNLASNIAPGSTSSHIVNGTNASVIASRLSGNISSAIQEHKDGKVNINRFQNILADLYSLGGLGSTLIEKNGNMQSWGIPLAIAGDIIAATAIATGDTGTISTEEFYNFDNWKGFGYELFEDWSRWVYDWLPDGWNLWKELDRNRCWILTERDGRRQFKWLGKPDPTRGWFDNGHECLKPWGNIFDSYRRGKYHVYDPLALDLDGDGIETVATKGFSGALFDHRNQGIRTATGWVSADDGLLVRDLNGNGIIDNGAELFGDNTKLADGSFAKHGYAALAELDSNGDNIINAADAAF", "soluble on expression in E. coli": "not soluble"}, {"sequence": "MKKVLLTAINSQFIHSNLAVRYLKAYAKELDLQIKIREFSINDRLERIFEEIMYEKPDIVGFSCYIWNGEYVDKLSNLIKRVDENIQIFYGGPEVSFDCREVLLNSSADFLIEGEGEESFKEFLKWKLENGFDRKDLKIKGVYSKCQNQILYGGQREALDMNLLEFPYNEEDDLSNKIIYYEASRGCPFNCKYCLSSTIRGVRFLNPDRVKRELKFLADKKVKIVKFVDRTFNANPKFAMEIWKYLMELDTETVFHFEITADIVTEDEIELLKNAPKGRFQFEVGVQSTNNEVLKNVNRYIEFKDIKEIVMKLEEGKNINQHLDLIVGLPGEDFNSFKNSFNDVYSIGPEKLQIGFLKLLKGSSMREEAEKWGMSYSPYHPYEILRTKDISFEEISILKRVDSVVDKYYNTGKFDHIVEFLISDFETPFDFYYKLSEYFYHKGYFNRSISASEYYKVFLDFNKEILKKENDVLEEIVKFEYLKFNKKSWLPPFLTRLNVKEEEQAIKEKLKEENKFDKKLHLEKFSIDIDRYITKKEIVYKEMYHIFN", "soluble on expression in E. coli": "not soluble"}, {"sequence": "MEKTLETVPLERKKREKEQFRKLFIGGLSFETTEESLRNYYEQWGKLTDCVVMRDPASKRSRGFGFVTFSSMAEVDAAMAARPHSIDGRVVEPKRAVAREESG", "soluble on expression in E. coli": "soluble"}, {"sequence": "MGSDKIHHHHHHMFVGASEFRLTDAEHGLSFPVLVMYPTRQLPSRHAFGPYLMDVSMNAPIAGGQHPLILVSHGSGGSHLLYRTMTAHLAQHGYVVAMIEHPGNNRVDNQFMGKVENLQYRPRHLRLTADALYGDAVLGPHLQAGRIGVIGHSMGGYTALALAGGTPWYPPEAFQPDYRGPAPAVVDVEHDDRVKALVLLAPATVWFMPEHALEDVDVPILMLSAEHDPYTPAWHGEIVRKGVRDPANVTSRCVKNAGHFSFLSPFPPKIKQGGALPTIDPEGFDRERFHEQLKQEILAYFNLRLKTAPA", "soluble on expression in E. coli": "not soluble"}, {"sequence": "MSLTVIIKSMETPEEIEGKSLVHWQTWRESYDDLLPAEFQDTMTLERCRFFSQKYPENTLIAMDGVKVVGFISYGNFRDETIQAGEIIALYVLKDYYGKGIAQKLMKAALTALNHFSEIFLWVLKDNKRAIAFYQKMGFTFDGQEKILELGKPIKEKRMVFYSKEGHHHHHH", "soluble on expression in E. coli": "soluble"}, {"sequence": "MAHHHHHHMDKLISNNKLKLSVVLLGGLCSLAYYHLKNKFHLSQFCFSKKWFSEFSIMWPGQAFSLKIKKILYETKSKYQNVLVFESTTYGKVLVLDGVIQLTEKDEFAYHEMMTHVPMTVSKEPKNVLVVGGGDGGIIRELCKYKSVENIDICEIDETVIEVSKIYFKNISCGYEDKRVNVFIEDASKFLENVTNTYDVIIVDSSDPIGPAETLFNQNFYEKIYNALKPNGYCVAQCESLWIHVGTIKNMIGYAKKLFKKVEYANISIPTYPCGCIGILCCSKTDTGLTKPNKKLESKEFADLKYYNYENHSAAFKLPAFLLKEIENI", "soluble on expression in E. coli": "soluble"}, {"sequence": "MGSDKIHHHHHHMLRIFQGRPAVTIAAVLVAASVAGCAGKAKKPTLVYEERPVELLYSTGADRLDRGNWNEAVDYFREVERQHPYSEWSRRSILMTGYAHYMGNQYAEAIGDADRFISLYPGNPSAQYAFYLKAICYFEQIVDVNRDQAATEQALAALRDVVQRYPNTEYATDARLKIDMVNDQLAGKEMAIGRWYLKNGQTLAAIGRFKAVIERHQTTSHTPEALFRLVEAYLTIGLNEEAKRNGAVLGYNFPGDRWYVDAYRLLNDNGLRPAVEPLKAGAKRNALERILSKDKEATLAPPGERKAKKGLLGPLGM", "soluble on expression in E. coli": "not soluble"}, {"sequence": "MSGLHILAFGAHADDVEIGMAGTIAKYTKQGYEVGICDLTEADLSSNGTIELRKEEAKVAARIMGVKTRLNLAMPDRGLYMKEEYIREIVKVIRTYKPKLVFAPYYEDRHPDHANCAKLVEEAIFSAGIRKYMPELSPHRVESFYNYMINGFHKPNFCIDISEYLSIKVEALEAYESQFSTGSDGVKTPLTEGYVETVIAREKMFGKEVGVLYAEGFMSKKPVLLHADLLGGCK", "soluble on expression in E. coli": "not soluble"}, {"sequence": "MGSSHHHHHHSSGLVPRGSHMKKNSLALSLTADQMVSALLDAEPPILYSEYDPTRPFSEASMMGLLTNLADRELVHMINWAKRVPGFVDLTLHDQVHLLECAWLEILMIGLVWRSMEHPVKLLFAPNLLLDRNQGKCVEGMVEIFDMLLATSSRFRMMNLQGEEFVCLKSIILLNSGVYTFLSSTLKSLEEKDHIHRVLDKITDTLIHLMAKAGLTLQQQHQRLAQLLLILSHIRHMSNKGMEHLYSMKCKNVVPLYDLLLEMLDAHRLHAP", "soluble on expression in E. coli": "not soluble"}, {"sequence": "MGSDKIHHHHHHMTALSSVDFCLPEHITPEIFLRDYWQKKPLVIRNGLPEIVGQFEPQDIIELAQNEDVTARLVKTFSDDDWKVFFSPLSEKDFQKLPEKWSVLVQNLEQWSPELGQLWNKFGFIPQWQRDDIMVSYAPKGGSVGKHYDEYDVFLVQGYGHRRWQVGKWCDASTEFKPNQSIRIFDDMGELVIDEVMNPGDILYIPARMAHYGVAEDDCLTFSFGLRYPNLSNLIDGISKGFCHQDPDLNLSEFDLPLRLSQSEQRTGKLADENIQAMKQLLLDKLAHSEAFDTLFKQAVASAVSSRRYELLVSDEMCDPDEVRSILEEDGAFLSQDNNCKLLYTENPLRIYANGEWLDELNIIESEVLKRLSDGESLDWAFLSDLANKTEDPETSMDLLLDSICNWVDDGWALIE", "soluble on expression in E. coli": "not soluble"}, {"sequence": "MSLGSQGSGLEQSSFQWSPSGRRTGSLYCRVGIGFHLQIYPDGKVNGSHEANMLSVLEIFAVSQGIVGIRGVFSNKFLAMSKKGKLHASAKFTDDCKFRERFQENSYNTYASAIHRTEKTGREWYVALNKRGKAKRGCSPRVKPQHISTHFLPRFKQSEQPELSFTVTVPEKEGHHHHHH", "soluble on expression in E. coli": "not soluble"}, {"sequence": "MAIYTVKALITDPIDEILIKTLREKGIQVDYMPEISKEELLNIIGNYDIIVVRSRTKVTKDVIEKGKKLKIIARAGIGLDNIDTEEAEKRNIKVVYAPGASTDSAVELTIGLMIAAARKMYTSMALAKSGIFKKIEGLELAGKTIGIVGFGRIGTKVGIIANAMGMKVLAYDILDIREKAEKINAKAVSLEELLKNSDVISLHVTVSKDAKPIIDYPQFELMKDNVIIVNTSRAVAVNGKALLDYIKKGKVYAYATDVFWNEPPKEEWELELLKHERVIVTTHIGAQTKEAQKRVAEMTTQNLLNAMKELGMI", "soluble on expression in E. coli": "soluble"}, {"sequence": "GPGSMEWSSQSALPGVEGSPGYGRLCSATSGGVGAFQQFSPATAATVGDTTSVPTEAPSSVSITVGEAMDGVALQCERRGLTNAATWLSEMSLHALPSLLATPLQACSYGGHGGNSLFSPLHRAIHLDSGVFGDHAIAGGVRSTPSAGWQRLHRVALGYFIKGEYQRCHHLILREVMRNTAVGSSCGVPLPSTTQRTWPMPAGEVPDNEGGLSLPLPEVVRGFRTTTLPPLLQFLSLYALFMDGVKAKQLSNNASQGGGAESSSMGRGGQQRALHPHARVLRAYLLEAMRNPVNMLNLPSSNNSDPEPQHGDGGDDGAALHVAVGGALPGAHHTSSAKRPWTTSSAVWLASRAVSAATTTGTAAVMTAGASASRPRGNKAGQLHARYSLPLHCCLVCLLERLSSRLSSRESSGSARRRIGSGTYVGLVAYRSVPVVAHGCSAAGTSHAPGKCDVSAGGGECQPTTAVRLGRPRVPRES", "soluble on expression in E. coli": "not soluble"}]}]}
